From patent US20190233493A1 (Sanofi, published 2019)
*1 amine or outer side, *2 acyl side, *3 side chain or, on linkers, in order; H or OH if unused. Primed or numbered codes have the meaning given here. Side-chain parts run from the residue outwards. [ ]: non-standard residue; d: D form. The star is where a group is joined. TTDS″ = 4-[3-[2-[2-(3-aminopropoxy)ethoxy]ethoxy]propylamino]-4-oxo-butanoyl; TtdDga = O=C(COCC(=O)[*:2])NCCCOCCOCCOCCCN[*:1]; Docosanoyl = CCCCCCCCCCCCCCCCCCCCCC(=O)*; Arachidoyl = CCCCCCCCCCCCCCCCCCCC(=O)*; Heptadecanoyl = CCCCCCCCCCCCCCCCC(=O)*; γGlu = O=C(O)[C@H](CCC(=O)[*:2])N[*:1]; Pentadecanoyl = CCCCCCCCCCCCCCC(=O)*; Stearoyl = CCCCCCCCCCCCCCCCCC(=O)*; Palmitoyl = CCCCCCCCCCCCCCCC(=O)*; Myristoyl = CCCCCCCCCCCCCC(=O)*; αMeK = C[C@](N)(CCCCN)C(=O)O; Nle = CCCC[C@H](N)C(=O)O; PEG2′ = PEG2 spacer unit; Aib = CC(C)(N)C(=O)O

T1: RXFP1 receptor (UniProt Q9HBX9 1-757, limits assumed)
T1 sequence (looked up): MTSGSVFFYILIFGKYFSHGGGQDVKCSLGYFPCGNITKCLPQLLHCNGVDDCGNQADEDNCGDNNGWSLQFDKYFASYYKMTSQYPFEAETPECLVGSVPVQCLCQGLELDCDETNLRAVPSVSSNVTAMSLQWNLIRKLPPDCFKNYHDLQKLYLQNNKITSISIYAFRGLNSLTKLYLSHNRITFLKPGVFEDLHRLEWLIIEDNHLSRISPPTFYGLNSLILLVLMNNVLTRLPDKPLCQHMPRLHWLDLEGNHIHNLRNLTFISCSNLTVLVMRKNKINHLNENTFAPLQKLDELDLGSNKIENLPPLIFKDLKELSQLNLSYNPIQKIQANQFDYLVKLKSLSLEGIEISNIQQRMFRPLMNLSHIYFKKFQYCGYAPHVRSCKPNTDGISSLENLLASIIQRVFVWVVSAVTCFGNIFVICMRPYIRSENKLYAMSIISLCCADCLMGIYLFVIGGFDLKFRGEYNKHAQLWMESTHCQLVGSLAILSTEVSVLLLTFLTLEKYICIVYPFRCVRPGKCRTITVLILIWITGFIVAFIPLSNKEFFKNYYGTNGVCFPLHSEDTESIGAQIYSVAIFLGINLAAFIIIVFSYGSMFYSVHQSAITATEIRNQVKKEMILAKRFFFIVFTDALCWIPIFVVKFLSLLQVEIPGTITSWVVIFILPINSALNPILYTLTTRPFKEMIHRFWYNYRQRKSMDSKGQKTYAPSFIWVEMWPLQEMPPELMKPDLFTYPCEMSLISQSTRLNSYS

B1: peptide of SEQ ID NO: 168 (peptide)
peptide: Ac-LEGREKVRAK(Ac)I[Aib][Aib]EG[Nle]STFSXRAK(Ac)[PEG2′][PEG2′][PEG2′][PEG2′][γGlu][γGlu]K([γGlu-γGlu-Pentadecanoyl])-NH2
modifications: not fully specified (some residues); printed as Ac-L-E-G-R-E-K-V-R-A-K(Ac)-I-Aib-Aib-E-G-Nle-S-T-F-S-Mly-R-A-K(Ac)-PEG2-PEG2-PEG2-PEG2-gE-gE-K(gE-gE-Penta)-NH2
B2: peptide of SEQ ID NO: 18 (peptide)
peptide: Ac-LEGREKVRAK(Ac)I[Aib][Aib]EG[Nle]STWS[Aib]RKK(Ac)[TtdDga]K([γGlu-γGlu-γGlu-Stearoyl])-NH2
SMILES: CCCCCCCCCCCCCCCCCC(=O)N[C@@H](CCC(=O)N[C@@H](CCC(=O)N[C@@H](CCC(=O)NCCCC[C@H](NC(=O)COCC(=O)NCCCOCCOCCOCCCNC(=O)[C@H](CCCCNC(C)=O)NC(=O)[C@H](CCCCN)NC(=O)[C@H](CCCNC(=N)N)NC(=O)C(C)(C)NC(=O)[C@H](CO)NC(=O)[C@H](Cc1c[nH]c2ccccc12)NC(=O)[C@@H](NC(=O)[C@H](CO)NC(=O)[C@H](CCCC)NC(=O)CNC(=O)[C@H](CCC(=O)O)NC(=O)C(C)(C)NC(=O)C(C)(C)NC(=O)[C@@H](NC(=O)[C@H](CCCCNC(C)=O)NC(=O)[C@H](C)NC(=O)[C@H](CCCNC(=N)N)NC(=O)[C@@H](NC(=O)[C@H](CCCCN)NC(=O)[C@H](CCC(=O)O)NC(=O)[C@H](CCCNC(=N)N)NC(=O)CNC(=O)[C@H](CCC(=O)O)NC(=O)[C@H](CC(C)C)NC(C)=O)C(C)C)[C@@H](C)CC)[C@@H](C)O)C(N)=O)C(=O)O)C(=O)O)C(=O)O
B3: peptide of SEQ ID NO: 175 (peptide)
peptide: Ac-LEGREKVRAK(Ac)I[Aib][Aib]EG[Nle]STWS[Aib]RKK(Ac)[TtdDga]K([γGlu-γGlu-γGlu-Palmitoyl])-NH2
SMILES: CCCCCCCCCCCCCCCC(=O)N[C@@H](CCC(=O)N[C@@H](CCC(=O)N[C@@H](CCC(=O)NCCCC[C@H](NC(=O)COCC(=O)NCCCOCCOCCOCCCNC(=O)[C@H](CCCCNC(C)=O)NC(=O)[C@H](CCCCN)NC(=O)[C@H](CCCNC(=N)N)NC(=O)C(C)(C)NC(=O)[C@H](CO)NC(=O)[C@H](Cc1c[nH]c2ccccc12)NC(=O)[C@@H](NC(=O)[C@H](CO)NC(=O)[C@H](CCCC)NC(=O)CNC(=O)[C@H](CCC(=O)O)NC(=O)C(C)(C)NC(=O)C(C)(C)NC(=O)[C@@H](NC(=O)[C@H](CCCCNC(C)=O)NC(=O)[C@H](C)NC(=O)[C@H](CCCNC(=N)N)NC(=O)[C@@H](NC(=O)[C@H](CCCCN)NC(=O)[C@H](CCC(=O)O)NC(=O)[C@H](CCCNC(=N)N)NC(=O)CNC(=O)[C@H](CCC(=O)O)NC(=O)[C@H](CC(C)C)NC(C)=O)C(C)C)[C@@H](C)CC)[C@@H](C)O)C(N)=O)C(=O)O)C(=O)O)C(=O)O
B4: peptide of SEQ ID NO: 177 (peptide)
peptide: Ac-LEGREKVRAQI[Aib][Aib]EGQSTWS[Aib]RKK(Ac)[TtdDga][TtdDga]K([γGlu-γGlu-γGlu-Palmitoyl])-NH2
SMILES: CCCCCCCCCCCCCCCC(=O)N[C@@H](CCC(=O)N[C@@H](CCC(=O)N[C@@H](CCC(=O)NCCCC[C@H](NC(=O)COCC(=O)NCCCOCCOCCOCCCNC(=O)COCC(=O)NCCCOCCOCCOCCCNC(=O)[C@H](CCCCNC(C)=O)NC(=O)[C@H](CCCCN)NC(=O)[C@H](CCCNC(=N)N)NC(=O)C(C)(C)NC(=O)[C@H](CO)NC(=O)[C@H](Cc1c[nH]c2ccccc12)NC(=O)[C@@H](NC(=O)[C@H](CO)NC(=O)[C@H](CCC(N)=O)NC(=O)CNC(=O)[C@H](CCC(=O)O)NC(=O)C(C)(C)NC(=O)C(C)(C)NC(=O)[C@@H](NC(=O)[C@H](CCC(N)=O)NC(=O)[C@H](C)NC(=O)[C@H](CCCNC(=N)N)NC(=O)[C@@H](NC(=O)[C@H](CCCCN)NC(=O)[C@H](CCC(=O)O)NC(=O)[C@H](CCCNC(=N)N)NC(=O)CNC(=O)[C@H](CCC(=O)O)NC(=O)[C@H](CC(C)C)NC(C)=O)C(C)C)[C@@H](C)CC)[C@@H](C)O)C(N)=O)C(=O)O)C(=O)O)C(=O)O
B5: peptide of SEQ ID NO: 176 (peptide)
peptide: Ac-LEGREKVRAK(Ac)I[Aib][Aib]EGQSTWS[Aib]RKK(Ac)[TtdDga]K([γGlu-γGlu-γGlu-Palmitoyl])-NH2
SMILES: CCCCCCCCCCCCCCCC(=O)N[C@@H](CCC(=O)N[C@@H](CCC(=O)N[C@@H](CCC(=O)NCCCC[C@H](NC(=O)COCC(=O)NCCCOCCOCCOCCCNC(=O)[C@H](CCCCNC(C)=O)NC(=O)[C@H](CCCCN)NC(=O)[C@H](CCCNC(=N)N)NC(=O)C(C)(C)NC(=O)[C@H](CO)NC(=O)[C@H](Cc1c[nH]c2ccccc12)NC(=O)[C@@H](NC(=O)[C@H](CO)NC(=O)[C@H](CCC(N)=O)NC(=O)CNC(=O)[C@H](CCC(=O)O)NC(=O)C(C)(C)NC(=O)C(C)(C)NC(=O)[C@@H](NC(=O)[C@H](CCCCNC(C)=O)NC(=O)[C@H](C)NC(=O)[C@H](CCCNC(=N)N)NC(=O)[C@@H](NC(=O)[C@H](CCCCN)NC(=O)[C@H](CCC(=O)O)NC(=O)[C@H](CCCNC(=N)N)NC(=O)CNC(=O)[C@H](CCC(=O)O)NC(=O)[C@H](CC(C)C)NC(C)=O)C(C)C)[C@@H](C)CC)[C@@H](C)O)C(N)=O)C(=O)O)C(=O)O)C(=O)O

Target: T1, RXFP1 receptor
Assay: cell-based or functional assay

Binder | EC50 (nM), OVCAR 5 cells (cAMP) | EMax, OVCAR 5 cells (cAMP)
Ac-LEGREKVRAK(Ac)I[Aib][Aib]EG[Nle]STFS[αMeK]RAK(Ac)[PEG2′][PEG2′][PEG2′][PEG2′]K([γGlu-γGlu-γGlu-γGlu-Pentadecanoyl])-NH2 [peptide of SEQ ID NO: 167] | 0.05 nM | 93%
Ac-LEGREKVRAK(Ac)I[Aib][Aib]EG[Nle]STFS[αMeK]RAK(Ac)[PEG2′][PEG2′][PEG2′][PEG2′]K([γGlu-γGlu-γGlu-γGlu-Myristoyl])-NH2 [peptide of SEQ ID NO: 172] | 0.56 nM | 95%
Ac-LEGREKVRAK(Ac)I[Aib][Aib]EG[Nle]STWS[Aib]RKK(Ac)K([PEG2′-PEG2′-PEG2′-γGlu-γGlu-γGlu-Myristoyl])-NH2 [peptide of SEQ ID NO: 178] | 17.6 nM | 93%
Ac-LEGREKVRAK(Ac)I[Aib][Aib]EG[Nle]STWS[Aib]RKK(Ac)K([PEG2′-PEG2′-PEG2′-γGlu-γGlu-γGlu-Pentadecanoyl])-NH2 [peptide of SEQ ID NO: 163] | 5.3 nM | 87%
B1 | 0.06 nM | 91%
Ac-LEGREKVRAK(Ac)I[Aib][Aib]EG[Nle]STWS[αMeK]RKK(Ac)[PEG2′][PEG2′][PEG2′]K([γGlu-γGlu-γGlu-γGlu-Palmitoyl])-NH2 [peptide of SEQ ID NO: 17] | 0.17 nM | 95%
Ac-LEGREKVRAK(Ac)I[Aib][Aib]EG[Nle]STWS[Aib]RKK(Ac)K([TTDS″-TTDS″-γGlu-γGlu-γGlu-Palmitoyl])-NH2 [peptide of SEQ ID NO: 166] | 0.26 nM | 92%
B2 | 0.41 nM | 83%
Ac-LEGREKVRAQI[Aib][Aib]EG[Nle]STWS[Aib]RKKK([PEG2′-PEG2′-PEG2′-γGlu-γGlu-γGlu-Stearoyl])-NH2 [peptide of SEQ ID NO: 174] | – | 88%
Ac-LEGREKVRAK(Ac)I[Aib][Aib]EG[Nle]STWS[Aib]RKK(Ac)K([PEG2′-PEG2′-PEG2′-γGlu-γGlu-γGlu-Arachidoyl])-NH2 [peptide of SEQ ID NO: 171] | 0.18 nM | 83%
Ac-LEGREKVRAK(Ac)I[Aib][Aib]EG[Nle]STWS[Aib]RKK(Ac)K([PEG2′-PEG2′-PEG2′-γGlu-γGlu-γGlu-Heptadecanoyl])-NH2 [peptide of SEQ ID NO: 164] | 0.79 nM | 93%
Ac-LEGREKVRAK(Ac)I[Aib][Aib]EG[Nle]STWS[Aib]RKK(Ac)K([PEG2′-PEG2′-PEG2′-γGlu-γGlu-γGlu-Docosanoyl])-NH2 [peptide of SEQ ID NO: 173] | 0.19 nM | 85%
Ac-LEGREKVRAK(Ac)I[Aib][Aib]EGQSTFS[αMeK]RAK(Ac)[PEG2′][PEG2′][PEG2′][PEG2′]K([γGlu-γGlu-γGlu-γGlu-Palmitoyl])-NH2 [peptide of SEQ ID NO: 170] | 0.01 nM | 87%
Ac-LEGREKVRAK(Ac)I[Aib][Aib]EG[Nle]STWS[Aib]RKK(Ac)K([PEG2′-PEG2′-γGlu-γGlu-PEG2′-γGlu-Palmitoyl])-NH2 [peptide of SEQ ID NO: 165] | 0.38 nM | 105%
B3 | 2.21 nM | 87%
B4 | 1.5 nM | 91%
B5 | 3 nM | 90%
